Experimental data taken from doi:10.1101/2021.05.03.442466.

Tests used:
[1] = target: salt stripped chicken erythrocyte mononucleosomes (chicken (endogenous in erythrocytes)); experiment: native gel or EMSA
HMGN1 = HMGN1 (UniProt P05114); experiment: co-IP
HMGN2 = HMGN2 (UniProt P05204); experiment: co-IP

| Molecule | H3K27ac level in HA complexes over LA MNs (dot blot) [1] [times] | H3K27ac level in HMGN-bound ON over input ON (dot blot) (HMGN1) [fold] | H3K27ac signal in HMGN1-bound over input nucleosomes (Western) (HMGN1) [fold] | H3K27ac level in HMGN-bound ON over input ON (dot blot) (HMGN2) [fold] | H3K27ac level in HA over LA fraction (Western) [1] [fold] | percent of total MNs not shifted (LA fraction) at HMGN:MN ratio 2.0 [1] [%] | percent of total MNs shifted (HA fraction) at HMGN1:MN ratio 0.2 [1] [%] |
| --- | --- | --- | --- | --- | --- | --- | --- |
| HMGN2 (from UniProt P05204 1-90) (natural protein) | 1.5 |  |  |  |  |  |  |
| salt-stripped oligonucleosomes from mouse embryonic fibroblasts (complex) |  | > 3 | 2.7 | > 3 |  |  |  |
| HMGN1 (natural protein) MPKRKVSSAEGAAKEEPKRRSARLSAKPPAKVEAKPKKAAAKDKSSDKKVQTKGKRGAKGKQAEVANQETKEDLPAENGETKTEESPASDEAGEKEAKSD | 1.5 |  |  |  | 2 | 12 | 9 |
